According to the DeepSol protein solubility set:

Assay: soluble on expression in E. coli; label from the status in PepcDB or PDB records

Sequence	soluble on expression in E. coli
VSVITSEMKMELRMEGAVNGHKFVITGKGSGQPFEGIQNMDLTVIEGGPLPFAFDILTTVFDYGNRVFVKYPEEIVDYFKQSFPEGYSWERSMSYEDGGICLATNNITMKKDGSNCFVYEIRFDGVNFPANGPVMQRKTVKWEPSTEKMYVRDGVLKGDVNMALLLQGGGHYRCDFRTTYKAKKVVQLPDYHFVDHRIEITSHDKDYNKVKLYEHAKAHSGLPRLAK	soluble
MGSDKIHHHHHHMKKEKVEERIREILRPGWDLLTEEAMLYSATVGGKRIRPLLVLTLGEDLGVEEEKLLDVAVAVELFHTASLIHDDLPPIDNADFRRGKPSCHRTYGEDIALLAGDGLFFLAFSQISKIGNSKIFEEFSETAYKLLLGEAMDVEFERRKMEVSQEMVERMYAFKTGALFAFCFSAPFILKGKDHTKMKLLGEKFGVAFQIYDDLKDILGSFEKVGKDLGKDTEKVTLVKKVGIQKAREMADKYYEEVLKGIESEGLFRTLFLLKELKQMVEER	soluble
MNPLSIVIITLNEENRIGRLLEDLTEQTFKNFEVIVVDSNSSDATCEVAQSFSASIPDLTVHKMDKQGVSLGRNTGASLAKHERLLFLDADVRLSPDFLTKALTQLNEKGLEVAGVYMGSKGLPVAHKLGYMTFNIGLFLTQFAFPTAVGACIFSTRRAHKDLLGFDENITLCEDCDYVKRASRTWRFRFLPMTFEFDPRRLEQDGFLRMGYTYLKANVRRFLFGEMRNNEMEYKFGHYSNQKLEHHHHHH	soluble
LFSYKSTMWQFINKVTSDRINILNQYYEKFGIHILPQQVTNYRSAGIIVMDNIYVT	not soluble
MSKNRQIQGCEVNECLHLDSTKPKSMLNKVKSVHSGFLGEPCVSVCCVCASSPVFLRRYFEWQPFSPREPHVWSTDRPLKVIDLTHLLFTEQMSDCVLGCTPQHCRLQSPVFARDTVLEVEVLLYSSLRFAHCSVDTRRPAFCSL	not soluble
MADLERYLKRARGGRVVRTGFLDPEDQARLEEMARREGIRVAFFGGFPLAERKVAVLYPEEVPSVSDPVEVVLLDRPPPADLGEVLGEVEEVEEGVLAALLPEGRKALEAQGYRLLPPPEGALRPPRERVRTLVVPSLRVDAVGAKGFGVSRSYFAQGVKAGKVRLKGRPASPKDELAPGDLLFAEGLGTLRLLEVVGKTVRGNYKIKVEVER	soluble
MNIQNIRTLLDTVAVPNTARTLGGEKAVRSVEQRSDGIHIALHFGFPVAHIASETADRIQEILMPETGDTHIHLSMDTEIGTHKVQPGVTTIKGVKNIIAVASGKGGVGKSTTTANLAAAMARMGARVGVLDADLYGPSQPTMLGVDDRKPDQKNQKLIPVESSDGIQVMSIGFLVDTDQAVVWRGPMVSQALQQLMFQSEWDEVDYLFIDLPPGTGDIQLTLSQRIPVTGSVIVTTPQDIALIDARKAVDMFRKVNIPILGVLENMSVHICTNCGHSEALFGTDGGKDFAARLNVPLLGQLPLSLPVREAMDGGTPAQLFDEHPAIARIYTDAAFQIALSIADKGKDFSSRFPKIVVE	not soluble
MGSDKIHHHHHHMFRRIREDLIKNHMEGPQGFRSMLAGWVECGFCTIVEDEIRFWNGSRIYLCHCKDEKDRFKYQGAEIHVLLIDELTHFTEVIYRFLRNRVRMVGIKLPAKYAGRFPRILCGANPGGIGHQFVKATFIDGATAMKVYTTEASEGGMRRQFIPAQLEDNPSMNDNDPGYENRLMGLGSESLVRAMRYGDWDVVEGAYFDNFERRRHVVKPFTIPDHWIRFRAGDWGSAKPFAFGWYVVASDDTIIAPGVVVPRGALVKYREWYGVKIDKSGKFLPDVGLKLHAEAVGAGVRQRDYDDIIVYGVLDPAAFSQDGGPSIAERMTRGTTGSNGSTFRRADNKRTAGRGAMGGWDQLRGRLTGDGDGRPMLFFFDTCIHTIRTLPALQHDEANPEDLDTKQEDHAADETRYACMSRPWIAKSKVPAPQVPEGHIALPGAPDEAAGNRRIRI	not soluble
MLDVHPSGFYAWLQQPHSQRHQADLRLTGQIKQFWLESGCVYGYRKIHLDLRDSGQQCGVNRVWRLMKRVGIKAQVGYRSPRARKGEASIVSPNRLQRQFNPDAPDERWVTDITYIRTHEGWLYLAVVVDLFSRKIIGWSMQSRMTKDIVLNALLMAVWRRNPEKQVLVHSDQGSQYTSHEWQSFLKSHGLEG	not soluble
MGSDKIHHHHHHMRENSDVLANSGFRQSVEVQIKDKQSYKRLNMTLVGQQHPDYLILELSRQYCWQDILPMLATEKNVAIKTVSPKGEQVTGVVDILHITQYPQKLLFVSYPRNASVEILRSSPRVGVNCDARLQLQLKDKLGEPLTGKIVDISNKGIAFNYFGTSPVNIEDSRGLEAEVRVKTDDETILLQQLITRSIRSVGPQLWQLGLSYKEKPNNLQDLVSKLFLHSTPVRELLSDNDPGWDASDNTLQGESESVQFSTN	not soluble
MSLSSHKPTVVLADSNDDFRSYLTSCLTEEFTIKSFRDGIEAMAYIKNEYPDLVICDTELQNMDGVELSSRLKTSCETSIIPIILYSSHIDINQHNRRKTSLADTFLQQPFSVTDLKLEMSILIKNTRFLRKSFLQRLFGEEFLETKASEILQDGKHPLISKVTKIILENLNNEKLTIDSIAKELGISRTSLYNKWTQLTGEALNKFILKIRMEKAHEMLKSGKYRVNEVPEKIGMKDMDNFREKYKKYFGKTPVDTIKNEGHHHHHH	soluble
AHHHHHHGSAESPFKADIERAQKELSEKMTPGAIVYIPGSSVINKTGSWRVFKPEFNRDKCVRCYLCYIYCPEPAIYLDEEGYPVFDYDYCKGCGICANECPTKAIEMVREVK	not soluble
MPFPFSRLFSFGVEHETGYVSRQSGRGRVYKGGGYSPFTITFQVSTHRSTMSDVTVAETPAVKTPTKAPKAPKSKTTKEPKAKVAAAHPPFINMVTAAISSLKERKGSSKIAILKYITANYKVGDQLTKINSRLRAALNKGVASKALVQSVGNGASGRFRVAEKAAATKKPVAKKPVAKKAATGEKKAKKTTVAKKTGDKVKKAKSPKKIAKPAAKKVAKSPAKKAAPKKAPAKKAAAPKA	not soluble
MKRIPYALVDVFAPAPGAGNRVAVVLDARGMSPEEMQAVAQSLGAAEAAFLLERTGAALSVRFFAPGGEVEFSGHAAVAVGLTAARTGLVPEGTTRLYLHTPTEVLPVELVLEAGEPRKAWVRGPAPRFRDLPPYRALREVLEALGSDERYLHRGLPYGVAFTGLWSLFVPLIAPGVVDALEPEMERLKALCFRLDVATVHAYAPMGPRSFYARDFAPLLGIPEDPVTGSANAALGALLARAGVVPRREGKVLLTVYQGHHLGNPGVVEVQVEYSPTGEPYSVQIGGEAVIVQTGEV	soluble
MATIIPTAWQPFKSETPLTTFPFRFPAEWEPQSAILIAWPHANTDWSAHLADVEETYIALVAAITRFQMVIICVLDDDLQTYTEARLRSASVAMQQVRFTVASYNDTWLRDSGPITLIGTNRDFRLLDFRFTGWGGKFEAKADDQLVSVLHANGLFKNTQMHSINFALEGGAIETDGAGTLLTTWRCLHERHPQRTRKTLDANLTAWLAQNRVLWLEHGYLEGDDTDAHIDTLARFASTDSIVYQSCDNTTDSHYAELQAMANELTALRTTEGRAYRLFPLPWTKPILDQDRRLPASYANFLIIEGAVLMPTYDDPADTIAQSVLAEAFP	not soluble
MGSDKIHHHHHHMKSHVRSFKTYIRDEIIKKGGWVNAHAHADRAFTMTPEKIGIYHSSNLQQKWDLVDEVKRTSSVDDYYARFCQSIELMISQGVTAFGTFVDIDPICEDRAIIAAHKAREVYKHDIILKFANQTLKGVIEPTARKWFDIGAEMVDMIGGLPYRDELDYGRGLEAMDILLDKAKSLGIMCHVHVDQFNNPSEKETEQLCDKTIEHGMEGRVVGIHGISIGSHSKEYRYKLYEKMRKAKMMMIACPMAWIDSNRKEDLMPFHNALTPADEMIPEVSLLP	not soluble
MLSARYLHLHEALGLGPMWLKQAAAVLPPKNTPAPSAQARPQTVRAAPIRPSQPHNGQARLETMKALETAAVPTRKPAPETETPLPGLSDGIAPVPAASGITKLAVVSLCPPIEDAVYGQLFHGKAGILLDNILKAVGLDAAYVHKTCWVKTAAVGNPMPSEQAVANALGQIARELDGCRAPAVLFLGQAFVQPERQTMIETLCGSRPFFIIDHPARLLRQPELKARAWQVLKQLKRALRQGGGS	not soluble
MKIDLNADLGEGCASDAELLTLVSSANIACGFHAGDAQIMQACVREAIKNGVAIGAHPSFPDRENFGRSAMQLPPETVYAQTLYQIGALATIARAQGGVMRHVKPHGMLYNQAAKEAQLADAIARAVYACDPALILVGLAGSELIRAGKQYGLTTREEVFADRGYQADGSLVPRSQSGALIENEEQALAQTLEMVQHGRVKSITGEWATVAAQTVCLHGDGEHALAFARRLRSAFAEKGIVVAALEHHHHHH	soluble
MRPLILSIFALFLAGCTHSQQSMVDTFRASLFDNQDITVADQQIQALPYSTMYLRLNEGQRIFVVLGYIEQEQSKWLSQDNAMLVTHNGRLLKTVKLNNNLLEVTNSGQDPLRNALAIKDGSRWTRDILWSEDNHFRSATLSSTFSFAGLETLHIAGRDVLCNVWQEEVTSTLPEKQWQNTFWVDSATGQVRQSRQMLGAGVIPVEMTFLKPAP	not soluble
MGPLPRKGNMKQKITDYLDEIYGGTFTATHLQKLVTRLESAKRLITQRRKKHWDESDVVLITYADQFHSNDLKPLPTFNQFYHQWLQSIFSHVHLLPFYPWSSDDGFSVIDYHQVASEAGEWQDIQQLGECSHLMFDFVCNHMSAKSEWFKNYLQQHPGFEDFFIAVDPQTDLSAVTRPRALPLLTPFQMRDHSTRHLWTTFSDDQIDLNYRSPEVLLAMVDVLLCYLAKGAEYVRLDAVGFMWKEPGTSCIHLEKTHLIIKLLRSIIDNVAPGTVIITETNVPHKDNIAYFGAGDDEAHMVYQFSLPPLVLHAVQKQNVEALCAWAQNLTLPSSNTTWFNFLASHDGIGLNPLRGLLPESEILELVEALQQEGALVNWKNNPDGTRSPYEINVTYMDALSRRESSDEERCARFILAHAILLSFPGVPAIYIQSILGSRNDYAGVEKLGYNRAINRKKYHSKEITRELNDEATLRHAVYHELSRLITLRRSHNEFHPDNNFTIDTINSSVMRIPRSNADGNCLTGLFNVSKNIQHVNITNLHGRDLISEVDILGNEITLRPWQVMWIK	not soluble
MGSDKIHHHHHHMWTPDALSSEVRPYRQDVWRVVEAQSRASTMRLVDSLEEQRLLEDLIDEVKPPVPPSCRQFHYLLSTPFRYGPYPTGSRFRRAGQQDGVFYASESVETAIAELAFYRLLFFVESPGTDLPARPTDHMAFSVPCVADRLIDLTLPPLAQDEAKWVNRLDYTACQDLADIARSARIEAIRYRSVRDPDGGCNLGVLTPAALGATKPQRLETWRLFIRPTGIQVAREFPRAEREFTCADFGADPRLDPFWIRP	not soluble
MSEIAMHVTAKPSSFQCNLKCDYCFYLEKESQFTHEKWMDDSTLKEFIKQYIAASGNQVYFTWQGGEPTLAGLDFFRKVIHYQQRYAGQKRIFNALQTNGILLNNEWCAFLKEHEFLVGISIDGPQELHDRYRRSNSGNGTFAKVIAAIERLKSYQVEFNTLTVINNVNVHYPLEVYHFLKSIGSKHMQFIELLETGTPNIDFSGHSENTFRIIDFSVPPTAYGKFMSTIFMQWVKNDVGEIFIRQFESFVSRFLGNGHTSCIFQESCKDNLVVESNGDIYECDHFVYPQYKLGNINKSELKTMNSVQLTAQKKRISAKCQQCAYKPICNGGCPKHRITKVNDETVSYFCEGYKILFSTMVPYMNAMVELAKNRVPLYHIMDVAKQMENN	not soluble
